In article PMC5115946 (Journal of molecular biology, 2016):

Legend:
[1] = target: UBCH5B (ubiquitin-conjugating enzyme E2 D2) (human, UniProt P62837 1-147); test: AUC
AUC = target: the molecule itself; test: AUC

Kd [1]: 15 µM
B1: RING finger protein 4 (RNF4) (enzyme, human, UniProt P78317 1-190, looked up)
chain: MSTRKRRGGAINSRQAQKRTREATSTPEISLEAEPIELVETAGDEIVDLTCESLEPVVVDLTHNDSVVIVDERRRPRRNARRLPQDHADSCVVSSDDEELSRDRDVYVTTHTPRNARDEGATGLRPSGTVSCPICMDGYSEIVQNGRLIVSTECGHVFCSQCLRDSLKNANTCPTCRKKINHKRYHPIYI
stoichiometry N (AUC): 2
